Experimental data published in patent US20030108545A1.
Values joined by “and” are separate entries in the source; they are usually repeats but may differ in a detail not shown here. Equal entries are not always repeated. Where two headings read alike, the source gives them in different places. Each block holds one binder with its values, some of them ahead of it.

What was measured:
[1] = target: soluble fusion protein KDR-AP (KDR (VEGFR-2) extracellular domain fused to human placental alkaline phosphatase) (human) (UniProt P35968); assay: BIAcore, KDR-AP immobilized
soluble fusion protein KDR-AP (KDR (VEGFR-2) extracellular domain fused to human placental alkaline phosphatase) (human), sequence (P35968 other isoform, or with tags, fused parts or gaps): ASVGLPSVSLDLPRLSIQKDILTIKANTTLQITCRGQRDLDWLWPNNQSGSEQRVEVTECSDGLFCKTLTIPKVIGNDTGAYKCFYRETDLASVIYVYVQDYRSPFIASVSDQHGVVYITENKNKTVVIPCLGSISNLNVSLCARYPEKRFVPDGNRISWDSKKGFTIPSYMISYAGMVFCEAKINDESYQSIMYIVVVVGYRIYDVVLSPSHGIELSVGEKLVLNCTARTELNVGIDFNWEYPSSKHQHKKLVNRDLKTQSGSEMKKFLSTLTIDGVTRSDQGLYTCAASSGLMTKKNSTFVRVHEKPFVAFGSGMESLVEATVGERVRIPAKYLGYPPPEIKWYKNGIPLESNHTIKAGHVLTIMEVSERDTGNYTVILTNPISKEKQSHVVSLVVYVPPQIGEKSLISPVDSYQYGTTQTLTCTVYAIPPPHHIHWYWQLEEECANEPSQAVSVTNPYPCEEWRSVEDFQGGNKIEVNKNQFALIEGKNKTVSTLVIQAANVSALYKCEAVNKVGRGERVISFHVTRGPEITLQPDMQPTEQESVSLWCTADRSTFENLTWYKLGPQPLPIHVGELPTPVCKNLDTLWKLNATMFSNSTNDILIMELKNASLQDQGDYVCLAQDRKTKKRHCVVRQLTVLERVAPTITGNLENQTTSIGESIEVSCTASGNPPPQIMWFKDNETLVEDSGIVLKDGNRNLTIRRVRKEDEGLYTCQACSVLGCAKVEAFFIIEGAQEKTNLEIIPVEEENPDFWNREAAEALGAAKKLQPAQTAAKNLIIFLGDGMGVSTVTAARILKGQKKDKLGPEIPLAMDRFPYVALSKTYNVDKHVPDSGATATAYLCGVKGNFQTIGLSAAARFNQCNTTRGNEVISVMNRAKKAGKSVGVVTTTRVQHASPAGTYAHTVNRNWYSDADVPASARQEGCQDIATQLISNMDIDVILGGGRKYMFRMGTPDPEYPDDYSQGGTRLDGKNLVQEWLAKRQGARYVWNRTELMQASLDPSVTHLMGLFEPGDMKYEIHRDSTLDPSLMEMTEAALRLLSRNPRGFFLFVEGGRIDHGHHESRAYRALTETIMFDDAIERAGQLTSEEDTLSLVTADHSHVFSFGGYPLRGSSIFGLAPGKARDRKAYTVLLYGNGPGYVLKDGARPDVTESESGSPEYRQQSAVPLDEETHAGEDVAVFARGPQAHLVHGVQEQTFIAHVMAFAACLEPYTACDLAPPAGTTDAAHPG

[2] = target: soluble fusion protein KDR-AP (KDR (VEGFR-2) extracellular domain fused to human placental alkaline phosphatase) (human) (UniProt P35968); assay: competitive ELISA: KDR-AP binding to immobilized VEGF165
[3] = target: KDR (VEGFR-2) expressed on the surface of HUVEC (human) (UniProt P35968); assay: cell-based or functional assay
KDR (VEGFR-2) expressed on the surface of HUVEC (human), sequence (P35968 20-1356): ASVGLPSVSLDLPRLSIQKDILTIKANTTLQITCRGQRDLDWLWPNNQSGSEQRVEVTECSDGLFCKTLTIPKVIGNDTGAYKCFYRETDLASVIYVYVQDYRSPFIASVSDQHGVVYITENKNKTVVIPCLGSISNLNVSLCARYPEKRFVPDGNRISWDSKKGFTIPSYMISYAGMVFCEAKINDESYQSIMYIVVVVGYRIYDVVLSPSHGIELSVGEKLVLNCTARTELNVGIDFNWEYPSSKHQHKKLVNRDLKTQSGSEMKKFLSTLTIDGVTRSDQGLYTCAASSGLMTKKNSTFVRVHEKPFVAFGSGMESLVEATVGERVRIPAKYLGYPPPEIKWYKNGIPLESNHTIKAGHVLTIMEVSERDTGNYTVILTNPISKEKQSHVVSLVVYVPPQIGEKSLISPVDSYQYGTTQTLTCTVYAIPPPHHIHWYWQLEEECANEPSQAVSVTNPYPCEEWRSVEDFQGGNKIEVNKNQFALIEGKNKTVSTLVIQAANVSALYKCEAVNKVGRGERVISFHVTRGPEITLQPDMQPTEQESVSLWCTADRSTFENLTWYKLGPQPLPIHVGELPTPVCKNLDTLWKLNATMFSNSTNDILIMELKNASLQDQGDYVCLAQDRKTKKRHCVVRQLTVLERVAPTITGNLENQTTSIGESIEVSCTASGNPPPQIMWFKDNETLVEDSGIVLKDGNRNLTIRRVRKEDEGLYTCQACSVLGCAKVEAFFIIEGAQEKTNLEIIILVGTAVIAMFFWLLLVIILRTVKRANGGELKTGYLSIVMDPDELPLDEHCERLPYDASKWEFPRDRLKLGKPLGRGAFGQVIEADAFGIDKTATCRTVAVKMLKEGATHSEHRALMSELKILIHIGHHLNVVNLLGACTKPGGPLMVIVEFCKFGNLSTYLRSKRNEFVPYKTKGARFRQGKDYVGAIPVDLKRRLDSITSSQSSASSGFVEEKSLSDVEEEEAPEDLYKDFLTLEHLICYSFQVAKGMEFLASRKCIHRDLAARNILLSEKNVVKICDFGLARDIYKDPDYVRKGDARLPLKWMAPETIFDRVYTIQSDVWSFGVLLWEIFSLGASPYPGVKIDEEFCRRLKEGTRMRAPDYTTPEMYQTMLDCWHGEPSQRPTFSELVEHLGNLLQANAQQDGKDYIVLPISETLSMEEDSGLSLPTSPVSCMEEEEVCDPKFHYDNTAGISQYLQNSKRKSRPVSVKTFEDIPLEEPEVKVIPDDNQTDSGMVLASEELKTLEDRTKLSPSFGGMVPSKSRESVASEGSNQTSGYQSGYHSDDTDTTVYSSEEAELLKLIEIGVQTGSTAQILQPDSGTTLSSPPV

[4] = target: soluble fusion protein KDR-AP (KDR (VEGFR-2) extracellular domain fused to human placental alkaline phosphatase) (human) (UniProt P35968); assay: BIAcore, KDR-AP immobilized; remark: listed apart in the source
[5] = target: soluble fusion protein KDR-AP (KDR (VEGFR-2) extracellular domain fused to human placental alkaline phosphatase) (human) (UniProt P35968); assay: competitive VEGF blocking ELISA: KDR-AP binding to immobilized VEGF165
[6] = target: human KDR (VEGFR-2), immobilized on ELISA plates (construct not stated) (human) (UniProt P35968); assay: direct binding ELISA on KDR-coated plates (ED50, 50% of maximum binding)
human KDR (VEGFR-2), immobilized on ELISA plates (construct not stated) (human), sequence (P35968 20-764 limits assumed): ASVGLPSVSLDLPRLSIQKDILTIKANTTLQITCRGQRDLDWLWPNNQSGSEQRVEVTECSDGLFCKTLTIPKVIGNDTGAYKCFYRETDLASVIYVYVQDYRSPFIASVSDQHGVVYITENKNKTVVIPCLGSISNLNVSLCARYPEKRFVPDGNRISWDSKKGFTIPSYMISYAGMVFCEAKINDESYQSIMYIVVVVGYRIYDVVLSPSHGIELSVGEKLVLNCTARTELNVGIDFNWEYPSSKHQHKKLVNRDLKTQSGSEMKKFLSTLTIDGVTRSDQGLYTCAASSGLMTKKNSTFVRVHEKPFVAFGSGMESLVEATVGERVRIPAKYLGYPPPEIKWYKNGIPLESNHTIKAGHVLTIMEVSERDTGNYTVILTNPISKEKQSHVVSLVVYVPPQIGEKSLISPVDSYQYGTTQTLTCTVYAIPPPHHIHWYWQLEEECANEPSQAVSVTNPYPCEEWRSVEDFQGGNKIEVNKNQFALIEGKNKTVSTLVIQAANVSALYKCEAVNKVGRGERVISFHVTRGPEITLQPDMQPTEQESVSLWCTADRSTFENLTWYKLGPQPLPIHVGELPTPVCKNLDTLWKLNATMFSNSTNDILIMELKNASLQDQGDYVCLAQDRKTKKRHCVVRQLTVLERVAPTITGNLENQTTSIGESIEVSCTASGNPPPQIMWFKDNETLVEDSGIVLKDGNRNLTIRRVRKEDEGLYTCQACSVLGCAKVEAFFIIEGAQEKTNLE

[7] = target: human KDR (VEGFR-2), immobilized on ELISA plates (construct not stated) (human) (UniProt P35968); assay: direct binding ELISA on KDR-coated plates, anti-E tag-HRP detection
[8] = target: chimeric receptor mouse flk-1 (VEGFR-2)/human fms on transfected 3T3 cells (C441) (mouse; human) (UniProt P35918); assay: saturation binding to intact C441 cells, colorimetric detection (FIG. 7)
chimeric receptor mouse flk-1 (VEGFR-2)/human fms on transfected 3T3 cells (C441) (mouse; human), sequence (P35918 other isoform, or with tags, fused parts or gaps mutant limits assumed): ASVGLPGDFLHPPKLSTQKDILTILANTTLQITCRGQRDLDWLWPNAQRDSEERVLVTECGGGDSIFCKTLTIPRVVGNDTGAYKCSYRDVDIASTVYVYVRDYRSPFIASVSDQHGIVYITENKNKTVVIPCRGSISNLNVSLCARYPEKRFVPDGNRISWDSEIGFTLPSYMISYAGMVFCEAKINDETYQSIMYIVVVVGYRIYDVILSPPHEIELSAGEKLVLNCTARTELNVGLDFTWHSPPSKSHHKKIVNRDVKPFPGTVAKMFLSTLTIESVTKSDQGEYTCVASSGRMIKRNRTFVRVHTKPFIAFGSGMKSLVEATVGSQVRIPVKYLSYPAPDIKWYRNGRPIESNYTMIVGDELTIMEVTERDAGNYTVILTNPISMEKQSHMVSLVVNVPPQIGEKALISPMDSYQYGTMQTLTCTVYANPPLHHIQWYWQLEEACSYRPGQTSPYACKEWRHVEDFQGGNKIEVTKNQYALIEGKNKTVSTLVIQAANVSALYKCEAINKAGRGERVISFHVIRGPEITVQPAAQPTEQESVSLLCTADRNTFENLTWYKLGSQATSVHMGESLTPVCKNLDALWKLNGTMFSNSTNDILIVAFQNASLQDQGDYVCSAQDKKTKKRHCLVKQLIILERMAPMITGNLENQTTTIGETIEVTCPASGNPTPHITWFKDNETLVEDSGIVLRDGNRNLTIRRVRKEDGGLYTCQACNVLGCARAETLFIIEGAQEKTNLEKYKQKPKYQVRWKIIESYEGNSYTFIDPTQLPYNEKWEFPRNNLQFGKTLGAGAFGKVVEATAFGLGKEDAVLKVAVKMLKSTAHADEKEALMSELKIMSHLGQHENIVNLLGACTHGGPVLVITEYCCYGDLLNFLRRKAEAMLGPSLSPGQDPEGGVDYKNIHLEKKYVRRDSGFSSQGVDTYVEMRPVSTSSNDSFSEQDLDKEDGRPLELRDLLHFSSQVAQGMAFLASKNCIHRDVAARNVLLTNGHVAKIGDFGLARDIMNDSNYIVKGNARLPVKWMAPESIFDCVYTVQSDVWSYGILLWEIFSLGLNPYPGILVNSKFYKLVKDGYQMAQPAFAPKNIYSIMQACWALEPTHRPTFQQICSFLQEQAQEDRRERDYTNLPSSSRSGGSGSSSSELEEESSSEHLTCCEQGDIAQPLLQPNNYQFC

[9] = target: chimeric receptor mouse flk-1 (VEGFR-2)/human fms on transfected 3T3 cells (C441) (mouse; human) (UniProt P35918); assay: cell-based or functional assay
[10] = scale: % of the fully stimulated receptor control

- koff [1]: 0.000227 s⁻¹
- kon [1]: 111000 M⁻¹ s⁻¹
- IC50 [2]: 2 nM
- EC50 of inhibition of VEGF induced DNA synthesis ([3H]-TdR) in HUVEC [3]: 5 nM
- antibody concentration required to inhibit 50% of VEGF-induced mitogenesis of HUVEC [3]: 6 nM
- Kd [4]: 2.1 nM
- koff [4]: 0.00023 s⁻¹
- kon [4]: 110000 M⁻¹ s⁻¹
- IC50 [5]: 3 nM
- EC50 [6]: 0.3 nM
- EC50 (read off the curve) [7]: 1 nM
B1: anti-KDR (VEGFR-2) single chain antibody scFv p1C11 (scFv, from a related filing, not shown: small tags and cut ends)
scFv: QVKLQQSGAELVGSGASVKLSCTTSGFNIKDFYMHWVKQRPEQGLEWIGWIDPENGDSDYAPKFQGKATMTADSSSNTAYLQLSSLTSEDTAVYYCNAYYGDYEGYWGQGTTVTVSSGGGGSGGGGSGGGGSDIELTQSPAIMSASPGEKVTITCSASSSVSYMHWFQQKPGTSPKLWIYSTSNLASGVPARFSGSGSGTSYSLTISRMEAEDAATYYCQQRSSYPFTFGSGTKLEIK

- relative apparent affinity [8]: 500 ng/mL
- phosphorylation of flk-1 (VEGFR-2) by VEGF165 (40 ng/ml), antibody titration [9]: > 0.5 µg/mL and < 1 µg/mL
- phosphorylation level by densitometry, antibody added with ligand (C) [9, 10]: 40
- phosphorylation level by densitometry, antibody prebound (P) [9, 10]: 6
B2: rat anti-mouse flk-1 (VEGFR-2) monoclonal antibody DC-101 (antibody, from another filing, V domains shown)
VH: EVQLVETGGGLVQPGNSLKLSCATSGFIFSTTWMNWIRQTPGKRLEWLAQIEDKSNNYFISYSESVKGRFTISRDDSKSSVYLQMNNLKEEDTAIYYCSWKYRSNYYFDYWGQGVMVTVSS
VL: DIVLTQSPALAVSLEQRATISCKTSQNVDYYGISYLHWYQQKPGQQPKLLIYEGSNLASGIPARFSGSGSGTDFTLTIDPVEADDIVTYYCQQSKDYPYTFGAGTKLELKR
